This passage reports peptide exchange yield results from patent US20260028387A1 (published 2026).

Some results are limits rather than exact numbers.

For this experiment, the target named is T1, HLA-A*02:01 (peptide-receptive MHC class I molecule of the UV-ligand exchange assay) (human).
T1 construct: MHC monomer first loaded with a UV-sensitive peptide (not identified) that is cleaved by UV light and exchanged for the test peptide; captured on streptavidin plates
As to the kind of experiment: UV-ligand exchange, anti-b2m ELISA; peptide exchange yield grade (>=10% = +; >=20% = ++; >=50 = +++; >=75% = ++++). An excerpt:
Candidate peptides for T cell based therapies according to the present invention were further tested for their MHC binding capacity (affinity). The individual peptide-MHC complexes were produced by UV-ligand exchange, where a UV-sensitive peptide is cleaved upon UV-irradiation, and exchanged with the peptide of interest as analyzed. Only peptide candidates that can effectively bind and stabilize the peptide-receptive MHC molecules prevent dissociation of the MHC complexes. To determine the yield of the exchange reaction, an ELISA was performed based on the detection of the light chain (β2m) of stabilized MHC complexes. The assay was performed as generally described in Rodenko et al. (Rodenko et al., 2006).
96 well MAXISorp plates (NUNC) were coated aver night with 2 ug/ml streptavidin in PBS at room temperature, washed 4× and blocked for 1 h at 37° C. in 2% BSA containing blocking buffer. Refolded HLA-A*02:01/MLA-001 monomers served as standards, covering the range of 15-500 ng/ml. Peptide-MHC monomers of the UV-exchange reaction were diluted 100 fold in blocking buffer. Samples were incubated for 1 h at 37° C., washed four times, incubated with 2 ug/ml HRP conjugated anti-02m for 1 h at 37° C., washed again and detected with TMB solution that is stopped with […]. Absorption was measured at 450 nm. Candidate peptides that show a high exchange yield (preferably higher than 50%, most preferred higher than 75%) are generally preferred for a generation and production of antibodies or fragments thereof, and/or T cell receptors or fragments thereof, as they show sufficient avidity to the MHC molecules and prevent dissociation of the MHC complexes.

B1: SLVSEQLEPA (SEQ ID NO: 34) (peptide)
peptide: SLVSEQLEPA
notes: synthetic peptide; source gene PKP3
With B1, the peptide exchange yield fell in the range of 50 to 75%.

B2: GLDVTSLRPFDL (SEQ ID NO: 33) (peptide)
peptide: GLDVTSLRPFDL
notes: synthetic peptide; source gene FLNA
For the molecule B2, the peptide exchange yield is 50 to 75%.

B3: FLLDQVQLGL (SEQ ID NO: 18) (peptide)
peptide: FLLDQVQLGL
notes: synthetic peptide; source gene TSPAN10
With B3, the peptide exchange yield was in the range of 50 to 75%.

B4: LLFAGTMTV (SEQ ID NO: 24) (peptide)
peptide: LLFAGTMTV
notes: synthetic peptide; source gene CYP2S1
In turn, B4 registered a peptide exchange yield of 20 to 50%.

B5: RLPNAGTQV (SEQ ID NO: 14) (peptide)
peptide: RLPNAGTQV
notes: synthetic peptide; source gene ITGA6
B5 registered a peptide exchange yield not below 75%.

B6: KLNDTYVNV (SEQ ID NO: 22) (peptide)
peptide: KLNDTYVNV
notes: synthetic peptide; source gene TMEM194A
In turn, B6 yielded a peptide exchange yield of 50 to 75%.

B7: MISRTPEV (SEQ ID NO: 17) (peptide)
peptide: MISRTPEV
notes: synthetic peptide; source genes F7, IGHV4-31, IGHG1, IGHG2, IGHG3, IGHG4, IGHM
B7: the peptide exchange yield fell in the range of 20 to 50%.

B8: LLRFSQDNA (SEQ ID NO: 35) (peptide)
peptide: LLRFSQDNA
notes: synthetic peptide; source gene LAP3
Turning to B8, the peptide exchange yield is 50 to 75%.

B9: LLPPPPPPA (SEQ ID NO: 25) (peptide)
peptide: LLPPPPPPA
notes: synthetic peptide; source gene ADAMTS2
As to B9, the peptide exchange yield fell in the range of 50 to 75%.

B10: KLSDSATYL (SEQ ID NO: 23) (peptide)
peptide: KLSDSATYL
notes: synthetic peptide
Turning to B10, the peptide exchange yield was 50 to 75%.

B11: SLDGFTIQV (SEQ ID NO: 28) (peptide)
peptide: SLDGFTIQV
notes: synthetic peptide; source gene OAS2
B11 had a peptide exchange yield of 20 to 50%.

B12: SLSPVILGV (SEQ ID NO: 13) (peptide)
peptide: SLSPVILGV
notes: synthetic peptide; source gene IL36RN
For the molecule B12, the peptide exchange yield is not below 75%.

B13: VLAEGGEGV (SEQ ID NO: 16) (peptide)
peptide: VLAEGGEGV
notes: synthetic peptide; source gene PDPN
The molecule B13 yielded a peptide exchange yield of 50 to 75%.

B14: NLREGDQLL (SEQ ID NO: 27) (peptide)
peptide: NLREGDQLL
notes: synthetic peptide; source gene AHNAK2
On to B14, for which the peptide exchange yield fell in the range of 50 to 75%.

B15: SLYNLGGSKRISI (SEQ ID NO: 2) (peptide)
peptide: SLYNLGGSKRISI
notes: synthetic peptide; source gene KRT5
As to B15, the peptide exchange yield is not below 75%.

B16: GLAPFLLNAV (SEQ ID NO: 19) (peptide)
peptide: GLAPFLLNAV
notes: synthetic peptide; source gene FAM115C
B16: the peptide exchange yield lay within 50 to 75%.

B17: YMLDIFHEV (SEQ ID NO: 32) (peptide)
peptide: YMLDIFHEV
notes: synthetic peptide; source gene HAS3
B17 registered a peptide exchange yield of 20 to 50%.

B18: LLANGVYAA (SEQ ID NO: 15) (peptide)
peptide: LLANGVYAA
notes: synthetic peptide; source gene ANO1
On to B18, for which the peptide exchange yield is 10 to 20%.

B19: SLDGTELQL (SEQ ID NO: 29) (peptide)
peptide: SLDGTELQL
notes: synthetic peptide; source gene TMEM102
B19 registered a peptide exchange yield of 50 to 75%.

B20: ALWLPTDSATV (SEQ ID NO: 11) (peptide)
peptide: ALWLPTDSATV
notes: synthetic peptide; source gene LAMB3
For B20, the peptide exchange yield lay within 50 to 75%.

B21: STYGGGLSV (SEQ ID NO: 1) (peptide)
peptide: STYGGGLSV
notes: synthetic peptide; source gene KRT14, KRT16
With B21, the peptide exchange yield fell in the range of 50 to 75%.

B22: TASAITPSV (SEQ ID NO: 3) (peptide)
peptide: TASAITPSV
notes: as for B15
Consider B22, for which the peptide exchange yield fell in the range of 50 to 75%.

B23: SLNGNQVTV (SEQ ID NO: 30) (peptide)
peptide: SLNGNQVTV
notes: synthetic peptide; source gene QSER1
Take B23: the peptide exchange yield was in the range of 10 to 20%.

B24: IVREFLTAL (SEQ ID NO: 21) (peptide)
peptide: IVREFLTAL
notes: synthetic peptide; source gene CRCP
In the case of B24, the peptide exchange yield was in the range of 50 to 75%.

B25: MLAEKLLQA (SEQ ID NO: 26) (peptide)
peptide: MLAEKLLQA
notes: synthetic peptide; source gene FAT1
Molecule B25 had a peptide exchange yield of 10 to 20%.

B26: GLASRILDA (SEQ ID NO: 12) (peptide)
peptide: GLASRILDA
notes: as for B20
For B26, the peptide exchange yield is 50 to 75%.

B27: VLPKLYVKL (SEQ ID NO: 31) (peptide)
peptide: VLPKLYVKL
notes: synthetic peptide; source genes RPS26P11, RPS26, RPS26P28, RPS26P15, RPS26P25, RPS26P58
B27 gave a peptide exchange yield of 20 to 50%.
